Results published in publication doi:10.1101/2023.04.27.538529.

Key:
[1] = target: mouse WT SH2B3 SH2 domain (residues 324-446) (mouse) (UniProt O09039); experiment: SPR
[2] = target: mouse E372K SH2B3 SH2 domain (residues 324-446) (mouse) (UniProt O09039); experiment: SPR

In the case of JAK2 pY813 peptide, the IC50 [1] is reported as 127 nM and the IC50 [2] is reported as 685 nM.
